Experimental data as given in doi:10.1101/2021.03.12.434960.

Tests used:
[1] = biological target: T1, full-length human KIF5A, C-terminal mScarlet-StrepII (human), Q12840; experiment: SEC-MALS; conditions: remark: other sources report otherwise
T1 chain: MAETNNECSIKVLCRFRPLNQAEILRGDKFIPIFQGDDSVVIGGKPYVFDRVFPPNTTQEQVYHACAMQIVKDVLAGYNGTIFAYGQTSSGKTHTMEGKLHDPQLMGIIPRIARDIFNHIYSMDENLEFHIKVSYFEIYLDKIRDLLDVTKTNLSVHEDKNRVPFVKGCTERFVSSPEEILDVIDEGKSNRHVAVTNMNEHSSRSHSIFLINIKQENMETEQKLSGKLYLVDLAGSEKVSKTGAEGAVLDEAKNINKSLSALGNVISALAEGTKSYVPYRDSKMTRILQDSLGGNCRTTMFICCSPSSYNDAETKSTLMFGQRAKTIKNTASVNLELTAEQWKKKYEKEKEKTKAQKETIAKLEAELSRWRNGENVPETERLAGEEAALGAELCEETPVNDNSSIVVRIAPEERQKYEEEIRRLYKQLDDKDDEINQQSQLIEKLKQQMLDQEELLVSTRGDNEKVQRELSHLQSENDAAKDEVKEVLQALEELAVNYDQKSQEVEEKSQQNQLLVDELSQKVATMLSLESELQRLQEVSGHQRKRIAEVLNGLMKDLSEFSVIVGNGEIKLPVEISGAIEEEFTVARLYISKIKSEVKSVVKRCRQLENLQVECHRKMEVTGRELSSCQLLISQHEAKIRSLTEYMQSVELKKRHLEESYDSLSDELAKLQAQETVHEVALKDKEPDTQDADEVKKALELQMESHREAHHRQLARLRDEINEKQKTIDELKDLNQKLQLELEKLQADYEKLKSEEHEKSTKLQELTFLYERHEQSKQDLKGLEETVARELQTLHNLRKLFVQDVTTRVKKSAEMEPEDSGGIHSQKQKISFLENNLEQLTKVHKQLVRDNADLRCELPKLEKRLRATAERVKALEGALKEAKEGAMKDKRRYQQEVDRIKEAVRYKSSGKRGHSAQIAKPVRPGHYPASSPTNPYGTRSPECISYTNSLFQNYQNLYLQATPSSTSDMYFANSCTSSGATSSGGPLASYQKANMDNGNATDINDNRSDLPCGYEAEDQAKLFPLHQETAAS

[2] = biological target: T2, full-length human KIF5B, C-terminal mScarlet-StrepII (human), P33176; experiment: SEC-MALS; conditions: remark: other sources report otherwise
T2 chain: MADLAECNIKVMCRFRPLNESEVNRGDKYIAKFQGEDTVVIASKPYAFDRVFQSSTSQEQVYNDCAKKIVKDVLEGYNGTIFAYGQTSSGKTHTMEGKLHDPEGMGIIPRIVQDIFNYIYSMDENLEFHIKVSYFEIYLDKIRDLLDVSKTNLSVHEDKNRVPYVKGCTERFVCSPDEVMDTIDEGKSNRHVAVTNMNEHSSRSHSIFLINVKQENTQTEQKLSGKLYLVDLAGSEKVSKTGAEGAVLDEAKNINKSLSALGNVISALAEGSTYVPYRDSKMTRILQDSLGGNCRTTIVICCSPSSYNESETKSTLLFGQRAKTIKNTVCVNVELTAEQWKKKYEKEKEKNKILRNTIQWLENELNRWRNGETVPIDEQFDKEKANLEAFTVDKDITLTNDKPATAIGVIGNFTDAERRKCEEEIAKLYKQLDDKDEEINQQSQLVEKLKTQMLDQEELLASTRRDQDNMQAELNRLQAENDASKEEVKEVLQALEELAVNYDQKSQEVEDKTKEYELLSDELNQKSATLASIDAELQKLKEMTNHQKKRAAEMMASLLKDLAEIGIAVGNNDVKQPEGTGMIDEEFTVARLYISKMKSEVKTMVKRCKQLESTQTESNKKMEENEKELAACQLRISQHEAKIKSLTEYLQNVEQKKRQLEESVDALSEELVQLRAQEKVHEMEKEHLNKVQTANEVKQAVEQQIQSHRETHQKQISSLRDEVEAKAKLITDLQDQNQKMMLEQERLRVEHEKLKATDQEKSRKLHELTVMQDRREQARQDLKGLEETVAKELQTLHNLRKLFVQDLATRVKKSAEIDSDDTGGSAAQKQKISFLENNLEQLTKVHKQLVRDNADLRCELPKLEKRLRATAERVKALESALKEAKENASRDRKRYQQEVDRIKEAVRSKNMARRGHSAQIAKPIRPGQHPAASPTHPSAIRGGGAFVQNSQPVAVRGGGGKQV

B1: full-length human KIF5A, C-terminal mScarlet-StrepII, Q12840 1-1032 (natural protein)
chain: T1 chain
stoichiometry N [1]: 2

B2: full-length human KIF5B, C-terminal mScarlet-StrepII, P33176 1-963 (natural protein)
chain: T2 chain
stoichiometry N [2]: 2
